# According to patent publication US7807162B2, “Single domain VHH antibodies against von Willebrand factor” (Ablynx N.V., priority 2005, dated 2010):
# Where “and” joins values, the source holds several entries; their conditions need not be identical. Equal values may be shown once.
# Assays:
# [1] = test system: cyclic flow reductions (CFRs) in injured, stenosed femoral artery; experiment: Folts thrombosis model in baboons: length/inhibition of cyclic flow reductions (CFRs); format: in vivo, baboon (Papio ursinus)
# Description: The study protocol that was applied is the original Folts model and some modifications described below (Folts J D, et al, Circulation. 1976; 54:365-370). Healthy male or female baboons (Papio ursinus) were used. The animals were 8-17 kg of weight and were disease-free for at least 2 weeks prior to use. The baboons were fed with dry standard food only. The baboons were used at different time points. […] Animals were anaesthetized and body temperature is maintained at 37° C. with a heating table. A segment of a femoral artery was dissected free from surrounding tissue. A shunt was placed between the femoral vein and femoral artery to obtain high shear rates. The mean and phasic blood flow was recorded continuously throughout the experiment. Baseline flow was recorded for 20 minutes. […] A clamp was placed over the injured site to create an external stenosis. A gradual decline in blood flow due to platelet adhesion and aggregation was observed. When flow was reduced to zero, blood flow was restored by opening the clamp to dislodge the platelet-rich thrombus. This repetitive pattern of decreasing blood flow following mechanical restoration is referred to as cyclic flow reductions (CFRs). Additional endothelial injury was repeated if needed to finally obtain stable CFRs in these baboons. The number of times the thrombus needed to be dislodged determines the number of CFRs. FIG. 24 illustrates blood flow pattern during the Folts model in baboons. […] This procedure was repeated for several times with escalating doses of the test substance. The anti-thrombotic effect was quantified by comparing the length of CFRs before and after drug administration. When full inhibition of CFRs was observed, a new injury was applied in order to confirm that the inhibition was an effect of the treatment but not of a natural healing phenomenon.
# [2] = test system: platelet adhesion to collagen type III; experiment: Inhibition of platelet adhesion by nanobodies in a flow (perfusion) chamber; format: cell-based, human; conditions: for % Platelet adhesion at 2 μg/ml: human blood, collagen type III, wall shear rate 1600 s^−1
# Description: The protein samples were analysed in a perfusion chamber. Thermanox coverslips (Nunc) were soaked overnight in 80% ethanol, rinsed thoroughly with distilled water and air-dried. Human placental collagen type III (Sigma) was solubilized in 0.05 mol/l acetic acid and sprayed on the coverslips at a final density of 30 μg/cm^2 with a retouching airbrush. After spraying the coverslips were blocked with 1% human albumin solution in PBS for at least 1 hour at RT. Perfusions were performed with a single-pass perfusion chamber under non-pulsatile flow conditions using a modified small perfusion chamber with a slit height of 0.1 mm and a slit width of 2 mm. Blood was obtained by venipuncture from healthy volunteers and anti-coagulated with Penta/PPACK. Triplicate coverslips were inserted into the chamber. […] After a perfusion run, the coverslip was taken from the chamber, rinsed in Hepes buffered saline (10 mM Hepes, 150 mM NaCL, ph 7.4), fixed in 0.5% glutaraldehyde in PBS, dehydrated in methanol and stained with May-Grünwald and Giemsa (Riedel de Haën). Platelet deposition was evaluated as platelet surface coverage using light microscopy and computer-assisted analysis.
# [3] = number of experiments with inhibition / total number of independent repeats
molecule,measurement,setting,value
CC(=O)Oc1ccccc1C(=O)O [Aspegic],Length of CFRs,"[1]; Aspegic final dose 1 mg/kg, individual baboons 3, 4, 5, 1 mg/kg",149 s and 164 s and 135 s
same,Length of CFRs,"[1]; Aspegic final dose 2.5 mg/kg, individual baboons 3, 4, 5, 2.5 mg/kg",102 s and 325 s and 115 s
same,Length of CFRs,"[1]; Aspegic final dose 5 mg/kg, individual baboons 3, 4, 5, 5 mg/kg",102 s and 1800 s and 245 s
same,Length of CFRs,"[1]; Aspegic final dose 10 mg/kg, individual baboons 3, 4, 5, 10 mg/kg",113 s and 905 s and 156 s
same,Length of CFRs,"[1]; Aspegic final dose 20 mg/kg, individual baboons 3, 4, 5, 20 mg/kg",125 s and 657 s and 169 s
same,Length of CFRs,"[1]; Aspegic final dose 40 mg/kg, individual baboons 3, 5, 40 mg/kg",110 s and 145 s
same,Length of CFRs,"[1]; Aspegic final dose 80 mg/kg, baboon 3",129 s
same,Length of CFRs,"[1]; Aspegic-treated, after Epinephrin, baboon 4",161 s
same,Inhibition of CFRs,"[1]; baboon 3 and 5, doses as high as 80 and 40 mg/kg respectively",no inhibition of CFRs could be obtained
same,dose at which full inhibition of CFRs was obtained,[1]; baboon 4,5 mg/kg
same,mean length of the CFRs versus before administration,"[1]; baboon 4, higher doses and upon new injury, CFRs returned",3-4 times
same,Inhibition of CFRs,[1]; [3],0/3
same,Inhibition of CFRs after administration of Epinephrin,[1]; [3],0/1
same,Inhibition of CFRs after new injury,[1]; [3],0/3
12A2-GS9-12A2 (protein) VHH: QVKLEESGGGLVQAGGALRLSCAASGRTFSYNPMGWFRQAPGKERDLVAAISRTGGSTYYPDSVEGRFTISRDNAKRMVYLQMNNLKPEDTAVYYCAAAGVRAEDGRVRTLPSEYTFWGQGTQVTVSSGGGGSGGGSEVQLVESGGGLVQAGGALRLSCAASGRTFSYNPMGWFRQAPGKERDLVAAISRTGGSTYYPDSVEGRFTISRDNAKRMVYLQMNNLKPEDTAVYYCAAAGVRAEDGRVRTLPSEYTFWGQGTQVTVSS,% Platelet adhesion,"[2]; 0.1 μg/ml nanobody, Table 23",81 ± 1%
same,% Platelet adhesion,"[2]; 0.2 μg/ml nanobody, Table 23",73 ± 1%
same,% Platelet adhesion,"[2]; 0.4 μg/ml nanobody, Table 23",40 ± 2%
"12D11: anti-vWF nanobody, SEQ ID NO: 63 (protein) VHH: AVQLVDSGGGLVQAGGSLRLSCTASERTTFSSYTLGWFRQAPGKEREFVGGISWSGVSTDYAEFAKGRFTISRDHAANTVYLEMNSLKPEDTAVYYCAALGRYRSNWRNIGQYDYWGQGTQVTVSS",% Platelet adhesion at 2 μg/ml,[2]; 2 μg/ml nanobody,61 ± 7%
12A2-3a-12A2 (protein) VHH: QVKLEESGGGLVQAGGALRLSCAASGRTFSYNPMGWFRQAPGKERDLVAAISRTGGSTYYPDSVEGRFTISRDNAKRMVYLQMNNLKPEDTAVYYCAAAGVRAEDGRVRTLPSEYTFWGQGTQVTVSSAAAEVQLVESGGGLVQAGGALRLSCAASGRTFSYNPMGWFRQAPGKERDLVAAISRTGGSTYYPDSVEGRFTISRDNAKRMVYLQMNNLKPEDTAVYYCAAAGVRAEDGRVRTLPSEYTFWGQGTQVTVSS,% Platelet adhesion,"[2]; 0.1 μg/ml nanobody, Table 23",74 ± 5%
same,% Platelet adhesion,"[2]; 0.2 μg/ml nanobody, Table 23",50 ± 3%
same,% Platelet adhesion,"[2]; 0.3 μg/ml nanobody, Table 41",10 ± 8%
same,% Platelet adhesion,"[2]; 0.4 μg/ml nanobody, Table 23",33 ± 0%
same,% Platelet adhesion,"[2]; 0.6 μg/ml nanobody, Table 41",4 ± 3%
"12A2H4: humanised 12A2 nanobody, SEQ ID NO: 92 (protein) VHH: EVQLVESGGGLVQPGGSLRLSCAASGRTFSYNPMGWFRQAPGKGRELVAAISRTGGSTYYPDSVEGRFTISRDNAKRSVYLQMNSLRAEDTAVYYCAAAGVRAEDGRVRTLPSEYTFWGQGTQVTVSS",% Platelet adhesion,"[2]; 0.5 μg/ml nanobody, Table 32",61 ± 1%
same,% Platelet adhesion,"[2]; 0.7 μg/ml nanobody, Table 31",55 ± 1%
same,% Platelet adhesion,"[2]; 1 μg/ml nanobody, Table 32",57 ± 1%
same,% Platelet adhesion,"[2]; 2 μg/ml nanobody, Table 32",46 ± 5%
"12A2H1: humanised 12A2 nanobody, SEQ ID NO: 90 (protein) VHH: EVQLVESGGGLVQPGGSLRLSCAASGRTFSYNPMGWFRQAPGKGRELVAAISRTGGSTYYPDSVEGRFTISRDNAKRMVYLQMNSLRAEDTAVYYCAAAGVRAEDGRVRTLPSEYTFWGQGTQVTVSS",% Platelet adhesion,"[2]; 0.5 μg/ml nanobody, Table 32",40 ± 9%
same,% Platelet adhesion,"[2]; 0.7 μg/ml nanobody, Table 31",49 ± 1%
same,% Platelet adhesion,"[2]; 1 μg/ml nanobody, Table 32",43 ± 3%
same,% Platelet adhesion,"[2]; 2 μg/ml nanobody, Table 32",38 ± 5%
"12B1: anti-vWF nanobody, SEQ ID NO: 61 (protein) VHH: QVQLVESGGGLVQAGGSLRLSCAASGRTFSNYGMGWFRQAPGKEREFVTSISWSGTYTAYSDNVKGRFTISRDNAKNTVYLQMDSLKPEDTAVYYCAAQSRYRSNYYDHDDKYAYWGQGTQVTVSS",% Platelet adhesion at 2 μg/ml,[2]; 2 μg/ml nanobody,56 ± 3%
"12E3: anti-vWF nanobody, SEQ ID NO: 64 (protein) VHH: EVQLVESGGGLVQAGGSLRLSCAASGRTFNNYGMGWFRQAPGKEREFVTSISWSGSYTAYADNVKGRFTISRDNAKNTVYLQMDSLKPGDTAVYYCAAQSRYSSNYYDHDDKYAYWGQGTQVTVSS",% Platelet adhesion at 2 μg/ml,[2]; 2 μg/ml nanobody,54 ± 1%
"12A5: anti-vWF nanobody, SEQ ID NO: 60 (protein) VHH: AVQLVESGGGLVQPGGSLRLSCLASGRIFSIGAMGMYRQAPGKQRELVATITSGGSTNYADPVKGRFTISRDGPKNTVYLQMNSLKPEDTAVYYCYANLKQGSYGYRFNDYWGQGTQVTVSS",% Platelet adhesion,"[2]; 0.2 μg/ml nanobody, Table 15",50 ± 7%
same,% Platelet adhesion,"[2]; 0.4 μg/ml nanobody, Table 15",27 ± 10%
same,% Platelet adhesion,"[2]; 0.6 μg/ml nanobody, Table 15",2 ± 2%
same,% Platelet adhesion at 2 μg/ml,[2]; 2 μg/ml nanobody,10 ± 3%
same,inhibition of platelet adhesion to collagen type III,[2]; perfusion chamber at high shear rate,clearly inhibit platelet adhesion
same,concentration with full inhibition of platelet adhesion,"[2]; tested at 0.2, 0.4 and 0.6 μg/ml, same donor",0.6 µg/mL
12A2H4-3a-12A2H4 (protein) EVQLVESGGGLVQPGGSLRLSCAASGRTFSYNPMGWFRQAPGKGRELVAAISRTGGSTYYPDSVEGRFTISRDNAKRSVYLQMNSLRAEDTAVYYCAAAGVRAEDGRVRTLPSEYTFWGQGTQVTVSSAAAEVQLVESGGGLVQPGGSLRLSCAASGRTFSYNPMGWFRQAPGKGRELVAAISRTGGSTYYPDSVEGRFTISRDNAKRSVYLQMNSLRAEDTAVYYCAAAGVRAEDGRVRTLPSEYTFWGQGTQVTVSS,% Platelet adhesion,"[2]; 0.3 μg/ml nanobody, Table 41",10 ± 6%
same,% Platelet adhesion,"[2]; 0.6 μg/ml nanobody, Table 41",8 ± 4%
12B6H2-3a-12B6H2 (protein) VHH: EVQLVESGGGLVQPGGSLRLSCAASGRTFSYNPMGWFRQAPGKGREVVAAISRTGGSTYYARSVEGRFTISRDNAKRMVYLQMNSLRAEDTAVYYCAAAGVRAEDGRVRTLPSEYNFWGQGTQVTVSSAAAEVQLVESGGGLVQPGGSLRLSCAASGRTFSYNPMGWFRQAPGKGREVVAAISRTGGSTYYARSVEGRFTISRDNAKRMVYLQMNSLRAEDTAVYYCAAAGVRAEDGRVRTLPSEYNFWGQGTQVTVSS,% Platelet adhesion,"[2]; 0.3 μg/ml nanobody, Table 41",30 ± 16%
same,% Platelet adhesion,"[2]; 0.6 μg/ml nanobody, Table 41",17 ± 6%
12B6-3a-12B6 (protein) VHH: QVQLVESGGGLVQAGGALRLSCAASGRTFSYNPMGWFRQAPGKERDVVAAISRTGGSTYYARSVEGRFTISRDNAKRMVYLQMNALKPEDTAVYYCAAAGVRAEDGRVRTLPSEYNFWGQGTQVTVSSAAAEVQLVESGGGLVQAGGALRLSCAASGRTFSYNPMGWFRQAPGKERDVVAAISRTGGSTYYARSVEGRFTISRDNAKRMVYLQMNALKPEDTAVYYCAAAGVRAEDGRVRTLPSEYNFWGQGTQVTVSS,% Platelet adhesion,"[2]; 0.3 μg/ml nanobody, Table 41",15 ± 6%
same,% Platelet adhesion,"[2]; 0.6 μg/ml nanobody, Table 41",8 ± 6%
"12C9: anti-vWF nanobody, SEQ ID NO: 65 (protein) VHH: AVQLVESGGGLVQPGGSLKLSCATSGSIFSSSAMAWYRQASGKQRELVATITSGGRTSYADSVKGRFTISRDNAKNTVYLQMNSLKPEDTAVYDCNFVVDGKRAPWGQGTQVTVSS",% Platelet adhesion at 2 μg/ml,[2]; 2 μg/ml nanobody,68 ± 8%
"14F8: anti-vWF nanobody, SEQ ID NO: 66 (protein) VHH: AVQLVESGGGLVQAGESLRLSCTSSGRAFSYYNTGWFRQAPGKEREFVAAISWSGGLTYYADSVKGRFTISRDNAKDMVYLQMASLKPEDTAVYYCAANRRQKTVQMGERAYDYWGQGTQVTVSS",% Platelet adhesion at 2 μg/ml,[2]; 2 μg/ml nanobody,51 ± 10%
